Molecular target: T1, CD73 on cells (MDA-MB-231 cells; human PBMC) (human, UniProt P21589 27-549)
T1 sequence (looked up): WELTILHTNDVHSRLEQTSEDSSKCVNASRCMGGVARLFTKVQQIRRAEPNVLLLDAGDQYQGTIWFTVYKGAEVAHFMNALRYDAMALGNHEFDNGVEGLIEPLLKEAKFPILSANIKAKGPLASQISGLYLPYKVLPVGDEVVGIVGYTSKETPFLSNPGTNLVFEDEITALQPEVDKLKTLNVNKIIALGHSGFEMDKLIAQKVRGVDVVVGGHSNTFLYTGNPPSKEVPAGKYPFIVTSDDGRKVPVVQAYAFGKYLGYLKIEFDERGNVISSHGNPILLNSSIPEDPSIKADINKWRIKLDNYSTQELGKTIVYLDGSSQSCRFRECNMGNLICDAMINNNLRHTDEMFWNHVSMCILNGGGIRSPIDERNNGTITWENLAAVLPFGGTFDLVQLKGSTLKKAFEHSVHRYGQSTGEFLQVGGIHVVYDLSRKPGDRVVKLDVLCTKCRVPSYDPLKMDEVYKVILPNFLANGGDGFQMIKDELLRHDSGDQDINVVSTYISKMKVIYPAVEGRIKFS
Assay: cell-based or functional assay

EC50, T cell proliferation (human PBMC with AMP): 189 nM | EC50, interferon gamma production (human PBMC with AMP): 137 nM
B1: CPX-006 (antibody, human IgG1, kappa, N297Q, V domains shown)
VH: QVQLVQSGAEVEKPGASVKVSCKASGYTFTSYWITWVRQAPGQGLEWMGDIYPGSGNTNYNEKFKTRVTITADKSTSTAYMELSSLRSEDTAVYYCAKEGGLTTEDYALDYWGQGTLVTVSS
VL: EIVLTQSPATLSLSPGERATLSCRASKNVSTSGYSYMHWYQQKPGQAPRLLIYLASNLESGIPPRFSGSGYGTDFTLTINNIESEDAAYYFCQHSRELPFTFGQGTKVEIKR
